{"source": "paper PMC10250220", "key": {"[1]": {"biological_target": "Flag-tagged CTC1 ΔB (human) (UniProt Q2NKJ3)", "sequence (Q2NKJ3 whole entry, stated change not applied)": "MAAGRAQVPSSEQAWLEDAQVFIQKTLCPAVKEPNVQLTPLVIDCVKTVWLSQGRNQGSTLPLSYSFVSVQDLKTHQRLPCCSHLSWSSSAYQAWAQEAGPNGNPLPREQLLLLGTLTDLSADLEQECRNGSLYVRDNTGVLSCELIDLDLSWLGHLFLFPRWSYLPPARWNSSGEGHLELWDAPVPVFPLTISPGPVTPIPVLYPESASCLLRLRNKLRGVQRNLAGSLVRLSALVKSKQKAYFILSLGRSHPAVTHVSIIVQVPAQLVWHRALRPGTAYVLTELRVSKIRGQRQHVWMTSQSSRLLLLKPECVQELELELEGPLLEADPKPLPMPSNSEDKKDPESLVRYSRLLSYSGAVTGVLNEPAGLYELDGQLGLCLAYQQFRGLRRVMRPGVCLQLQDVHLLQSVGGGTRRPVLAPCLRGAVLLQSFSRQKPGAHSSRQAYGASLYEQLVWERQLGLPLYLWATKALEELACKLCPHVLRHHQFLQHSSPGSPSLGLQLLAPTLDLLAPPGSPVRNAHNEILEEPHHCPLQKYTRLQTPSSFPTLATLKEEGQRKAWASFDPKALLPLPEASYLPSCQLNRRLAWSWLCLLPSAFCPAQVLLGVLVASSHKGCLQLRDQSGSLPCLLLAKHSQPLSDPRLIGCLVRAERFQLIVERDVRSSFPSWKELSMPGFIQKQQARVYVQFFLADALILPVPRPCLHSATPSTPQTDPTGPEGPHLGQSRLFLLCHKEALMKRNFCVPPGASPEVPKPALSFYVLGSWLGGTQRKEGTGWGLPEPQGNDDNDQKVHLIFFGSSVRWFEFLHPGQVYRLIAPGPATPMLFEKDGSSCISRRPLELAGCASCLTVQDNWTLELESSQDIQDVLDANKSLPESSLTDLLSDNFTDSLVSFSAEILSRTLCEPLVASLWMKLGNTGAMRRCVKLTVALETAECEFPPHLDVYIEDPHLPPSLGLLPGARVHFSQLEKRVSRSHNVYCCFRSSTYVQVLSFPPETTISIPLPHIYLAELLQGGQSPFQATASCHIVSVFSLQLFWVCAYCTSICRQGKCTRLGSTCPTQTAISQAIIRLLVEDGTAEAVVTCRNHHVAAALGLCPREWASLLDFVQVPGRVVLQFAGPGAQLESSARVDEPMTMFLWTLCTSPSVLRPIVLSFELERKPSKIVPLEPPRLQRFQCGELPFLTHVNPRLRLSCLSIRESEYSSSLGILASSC", "assay": "co-IP"}, "[2]": {"biological_target": "CTC1 V259M;STN1;TEN1 (human?;human?;human?, UniProt Q2NKJ3;Q9H668;Q86WV5 1-1217;1-368;1-123, V259M||)", "sequence (Q2NKJ3 whole entry V259M, chain 1 of 3)": "as the sequence (Q2NKJ3 whole entry, stated change not applied) above, with V259M counted along it", "sequence (Q9H668 whole entry, chain 2 of 3)": "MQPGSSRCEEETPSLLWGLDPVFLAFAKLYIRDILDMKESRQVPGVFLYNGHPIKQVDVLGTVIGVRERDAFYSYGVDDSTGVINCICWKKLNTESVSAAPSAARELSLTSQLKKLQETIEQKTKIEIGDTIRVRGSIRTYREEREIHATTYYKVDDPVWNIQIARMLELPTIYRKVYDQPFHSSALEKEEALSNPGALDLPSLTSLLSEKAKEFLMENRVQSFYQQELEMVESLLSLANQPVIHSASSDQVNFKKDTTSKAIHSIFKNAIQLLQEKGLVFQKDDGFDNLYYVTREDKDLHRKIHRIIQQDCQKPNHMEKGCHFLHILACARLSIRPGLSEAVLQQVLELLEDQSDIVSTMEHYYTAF", "sequence (Q86WV5 whole entry, chain 3 of 3)": "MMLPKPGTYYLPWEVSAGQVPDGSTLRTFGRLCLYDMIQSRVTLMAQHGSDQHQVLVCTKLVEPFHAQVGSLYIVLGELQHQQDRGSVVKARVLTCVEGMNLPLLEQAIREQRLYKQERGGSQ", "assay": "EMSA"}, "[3]": {"biological_target": "CTC1 A227V;STN1;TEN1 (human?;human?;human?, UniProt Q2NKJ3;Q9H668;Q86WV5 1-1217;1-368;1-123, A227V||)", "sequence (Q2NKJ3 whole entry A227V, chain 1 of 3)": "as the sequence (Q2NKJ3 whole entry, stated change not applied) above, with A227V counted along it", "sequence (Q9H668 whole entry, chain 2 of 3)": "as the sequence (Q9H668 whole entry, chain 2 of 3) above", "sequence (Q86WV5 whole entry, chain 3 of 3)": "as the sequence (Q86WV5 whole entry, chain 3 of 3) above", "assay": "EMSA"}}}
{"molecule": "Myc-tagged TPP1 (from UniProt Q96AP0 1-458) (natural protein)", "values": [{"measurement": "percent decrease of TPP1 co-immunoprecipitated, against WT CTC1", "setting": "[1]", "result": 44, "unit": "%"}]}
{"molecule": "GGTTAGGGTTAGGGTTAG (ssDNA)", "note": "[Tel-18 CY7]", "values": [{"measurement": "binding result", "setting": "[2]", "result": "binds"}, {"measurement": "binding result", "setting": "[3]", "result": "binds"}]}
